Experimental data taken from the supplement of paper PMC9112550, “Optimization of the antimicrobial peptide Bac7 by deep mutational scanning” (BMC Biology, 2022).

test system: Escherichia coli TOP10; assay: shrunken log2 fold change of peptide-encoding DNA abundance (4.5 h post-induction vs induction); higher = less antimicrobial activity (less host growth inhibition); details: time post-induction: 4.5 h; library: site-saturation at positions 5, 18, 19, 20
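Note: peptides expressed intracellularly from a pBAD plasmid library in pooled LB shake-flask culture, induced with 0.3% L-arabinose, DNA abundance read by NGS, three biological replicates, DESeq2 with apeglm shrinkage.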

Compared with RRIRLRPPRLPRPRPRPQFTPRP, RRIRWRPPRLPRPRPRPLITPRP is higher in “shrunken log2 fold change” value: -0.324 for the first, 0.0192 for the second.

Compared with RRIRYRPPRLPRPRPRPAQLPRP, RRIRERPPRLPRPRPRPEKIPRP is higher in “shrunken log2 fold change” value: -0.392 for the first, 0.0141 for the second.

Compared with RRIRPRPPRLPRPRPRPRHLPRP, RRIRYRPPRLPRPRPRPANMPRP is lower in “shrunken log2 fold change” value: -0.0836 for the first, -0.683 for the second.

First: RRIRCRPPRLPRPRPRPQTYPRP
Second: RRIRRRPPRLPRPRPRPQFHPRP
The “shrunken log2 fold change” value of the first is lower: -0.727 for the first, -0.133 for the second.

RRIRRRPPRLPRPRPRPYPEPRP and RRIRARPPRLPRPRPRPSQYPRP are within 0.2 log units of each other in “shrunken log2 fold change” value: 0.00427 for the first, -0.00629 for the second.

First: RRIRERPPRLPRPRPRPMHVPRP
Second: RRIRYRPPRLPRPRPRPWCLPRP
The “shrunken log2 fold change” value of the first is higher: 0.05 for the first, -0.634 for the second.

Going from RRIRIRPPRLPRPRPRPNWMPRP to RRIRRRPPRLPRPRPRPTVEPRP, the “shrunken log2 fold change” value rises from -0.341 to 1.39.

Compared with RRIRCRPPRLPRPRPRPADCPRP, RRIRWRPPRLPRPRPRPNKYPRP is lower in “shrunken log2 fold change” value: -0.0557 for the first, -0.481 for the second.

RRIRDRPPRLPRPRPRPHDAPRP and RRIRWRPPRLPRPRPRPSRMPRP are within 0.2 log units of each other in “shrunken log2 fold change” value: 0.0126 for the first, 0.0635 for the second.

Going from RRIRPRPPRLPRPRPRPNLPPRP to RRIRLRPPRLPRPRPRPPCKPRP, the “shrunken log2 fold change” value rises from -0.142 to 0.15.

Compared with RRIRHRPPRLPRPRPRPDNHPRP, RRIRSRPPRLPRPRPRPTVRPRP is higher in “shrunken log2 fold change” value: -0.323 for the first, -0.00791 for the second.

Compared with RRIRIRPPRLPRPRPRPFVPPRP, RRIRWRPPRLPRPRPRPTKFPRP is higher in “shrunken log2 fold change” value: -0.722 for the first, 0.142 for the second.

First: RRIRLRPPRLPRPRPRPELEPRP
Second: RRIRGRPPRLPRPRPRPTLYPRP
The “shrunken log2 fold change” value of the first is lower: 0.23 for the first, 0.598 for the second.

First: RRIRSRPPRLPRPRPRPQKMPRP
Second: RRIRLRPPRLPRPRPRPGAPPRP
The “shrunken log2 fold change” value of the first is lower: -0.122 for the first, 0.672 for the second.

First: RRIRLRPPRLPRPRPRPKNIPRP
Second: RRIRNRPPRLPRPRPRPDCDPRP
The “shrunken log2 fold change” value of the first is lower: -0.499 for the first, -0.132 for the second.

RRIRWRPPRLPRPRPRPGKPPRP and RRIRNRPPRLPRPRPRPPAEPRP are within 0.2 log units of each other in “shrunken log2 fold change” value: 0.066 for the first, 0.256 for the second.

Going from RRIRARPPRLPRPRPRPNWLPRP to RRIRWRPPRLPRPRPRPRCAPRP, the “shrunken log2 fold change” value rises from 0.275 to 0.586.

RRIRDRPPRLPRPRPRPNEGPRP and RRIRFRPPRLPRPRPRPEMGPRP are within 0.2 log units of each other in “shrunken log2 fold change” value: -0.000567 for the first, 0.0117 for the second.

First: RRIRQRPPRLPRPRPRPIVCPRP
Second: RRIRGRPPRLPRPRPRPHFNPRP
The “shrunken log2 fold change” value of the first is lower: -0.137 for the first, 0.232 for the second.

Compared with RRIRARPPRLPRPRPRPFQKPRP, RRIRSRPPRLPRPRPRPCMIPRP is lower in “shrunken log2 fold change” value: 0.121 for the first, -0.389 for the second.

RRIRARPPRLPRPRPRPQCKPRP and RRIRRRPPRLPRPRPRPHRKPRP are within 0.2 log units of each other in “shrunken log2 fold change” value: -0.077 for the first, -0.247 for the second.

RRIRYRPPRLPRPRPRPQSAPRP and RRIRDRPPRLPRPRPRPFSYPRP are within 0.2 log units of each other in “shrunken log2 fold change” value: -0.21 for the first, -0.22 for the second.

RRIRERPPRLPRPRPRPCCRPRP and RRIRQRPPRLPRPRPRPWWPPRP are within 0.2 log units of each other in “shrunken log2 fold change” value: 0.0107 for the first, -0.119 for the second.

First: RRIRKRPPRLPRPRPRPEHSPRP
Second: RRIRWRPPRLPRPRPRPRWRPRP
The “shrunken log2 fold change” value of the first is lower: 0.00628 for the first, 0.552 for the second.

Going from RRIRVRPPRLPRPRPRPHSMPRP to RRIRGRPPRLPRPRPRPLVAPRP, the “shrunken log2 fold change” value rises from -0.333 to 1.16.

First: RRIRQRPPRLPRPRPRPFNFPRP
Second: RRIRHRPPRLPRPRPRPPRHPRP
The “shrunken log2 fold change” value of the first is lower: -0.16 for the first, 0.231 for the second.

Going from RRIRPRPPRLPRPRPRPIWVPRP to RRIRHRPPRLPRPRPRPNYIPRP, the “shrunken log2 fold change” value falls from 0.0645 to -1.35.

Compared with RRIRFRPPRLPRPRPRPRGPPRP, RRIRQRPPRLPRPRPRPICIPRP is lower in “shrunken log2 fold change” value: 0.763 for the first, -0.0334 for the second.

First: RRIRYRPPRLPRPRPRPAQMPRP
Second: RRIRTRPPRLPRPRPRPYQWPRP
The “shrunken log2 fold change” value of the first is higher: 0.0755 for the first, -0.216 for the second.

RRIRMRPPRLPRPRPRPSQWPRP and RRIRQRPPRLPRPRPRPHNFPRP are within 0.2 log units of each other in “shrunken log2 fold change” value: 0.0206 for the first, -0.154 for the second.

RRIRMRPPRLPRPRPRPFHQPRP and RRIRTRPPRLPRPRPRPHCDPRP are within 0.2 log units of each other in “shrunken log2 fold change” value: -0.0752 for the first, -0.0828 for the second.

RRIRIRPPRLPRPRPRPFGNPRP and RRIRARPPRLPRPRPRPMFYPRP are within 0.2 log units of each other in “shrunken log2 fold change” value: -0.118 for the first, -0.282 for the second.

Going from RRIRKRPPRLPRPRPRPQNNPRP to RRIRSRPPRLPRPRPRPPTKPRP, the “shrunken log2 fold change” value rises from -0.417 to 0.0856.

Going from RRIRYRPPRLPRPRPRPSFRPRP to RRIRRRPPRLPRPRPRPEHGPRP, the “shrunken log2 fold change” value rises from -0.59 to 0.0177.

Going from RRIRMRPPRLPRPRPRPKLDPRP to RRIRTRPPRLPRPRPRPFLWPRP, the “shrunken log2 fold change” value falls from 1.7 to 0.189.

Going from RRIRFRPPRLPRPRPRPDYMPRP to RRIRRRPPRLPRPRPRPFCCPRP, the “shrunken log2 fold change” value rises from -0.432 to 0.343.

Compared with RRIRRRPPRLPRPRPRPSPGPRP, RRIRMRPPRLPRPRPRPFCHPRP is lower in “shrunken log2 fold change” value: 0.258 for the first, -0.0129 for the second.

With RRIRWRPPRLPRPRPRPIGHPRP the “shrunken log2 fold change” value was 0.0282.
